Laboratory results published in doi:10.1101/2020.09.10.291369, “In vivo and in vitro mechanistic characterization of a clinically relevant PolγA mutation”.

Molecular target: T1, POLγA WT (UniProt P54099 26-1218)
T1 sequence: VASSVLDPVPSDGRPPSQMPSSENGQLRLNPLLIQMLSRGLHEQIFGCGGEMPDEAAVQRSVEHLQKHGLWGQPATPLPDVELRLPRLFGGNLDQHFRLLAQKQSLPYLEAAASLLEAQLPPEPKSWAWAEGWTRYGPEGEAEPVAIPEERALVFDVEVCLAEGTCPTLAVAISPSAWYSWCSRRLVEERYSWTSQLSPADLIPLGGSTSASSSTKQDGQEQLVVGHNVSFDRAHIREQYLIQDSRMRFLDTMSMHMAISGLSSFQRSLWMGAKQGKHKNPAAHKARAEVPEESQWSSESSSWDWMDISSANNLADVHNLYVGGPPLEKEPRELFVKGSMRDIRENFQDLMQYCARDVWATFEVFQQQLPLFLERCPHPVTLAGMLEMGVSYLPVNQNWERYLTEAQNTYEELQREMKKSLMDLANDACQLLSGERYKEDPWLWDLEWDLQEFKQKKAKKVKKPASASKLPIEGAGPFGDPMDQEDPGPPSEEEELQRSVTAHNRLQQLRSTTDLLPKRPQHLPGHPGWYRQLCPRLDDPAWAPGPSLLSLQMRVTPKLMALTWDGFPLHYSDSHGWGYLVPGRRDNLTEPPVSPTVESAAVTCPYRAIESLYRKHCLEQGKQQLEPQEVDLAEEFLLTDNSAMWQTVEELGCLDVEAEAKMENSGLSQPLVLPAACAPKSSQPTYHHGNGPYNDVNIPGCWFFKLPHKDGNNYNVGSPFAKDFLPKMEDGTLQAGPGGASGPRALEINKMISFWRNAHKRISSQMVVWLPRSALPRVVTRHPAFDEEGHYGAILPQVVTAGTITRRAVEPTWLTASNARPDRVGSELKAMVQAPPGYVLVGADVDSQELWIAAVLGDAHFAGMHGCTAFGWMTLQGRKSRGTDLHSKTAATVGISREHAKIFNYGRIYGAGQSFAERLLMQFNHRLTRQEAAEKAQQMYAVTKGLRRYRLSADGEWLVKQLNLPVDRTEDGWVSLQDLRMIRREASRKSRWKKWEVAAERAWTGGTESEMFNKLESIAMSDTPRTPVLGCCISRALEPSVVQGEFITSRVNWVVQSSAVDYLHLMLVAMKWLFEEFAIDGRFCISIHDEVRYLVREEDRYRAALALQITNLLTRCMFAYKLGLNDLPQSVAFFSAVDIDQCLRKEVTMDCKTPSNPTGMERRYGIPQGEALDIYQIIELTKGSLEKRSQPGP
Test: EMSA; POLγA alone; 10 mM MgCl2, ddGTP, dCTP, ATP; Kd in Suppl. Fig. 5A, value not in material; EMSA: 10 fmol DNA in 15 µl, 20 mM Tris-HCl pH 7.8, 1 mM DTT, 0.1 mg/ml BSA, 10 mM MgCl2, 10% glycerol, 2 mM ATP, 0.3 mM ddGTP, 3 mM dCTP, RT 10 min; 6% native PAGE 0.5x TBE
Settings: protein: recombinant; label: 5'-32P on strand 2 (21-mer); 5' overhang 15 nt on strand 1; 21 bp duplex; primer-template

B1: 36-nt/21-nt primed template (mixed)
DNA 1: TTTTTTTTTTATCCGGGCTCCTCTAGACTCGACCGC
DNA 2: GCGGTCGAGTCTAGAGGAGCC
binding result: binds
